PMC10120378
Where two headings read alike, the source gives them in different places.

Experiments:
Assay in all cases: fluorescence polarization
HUα2 P63A [1] = target: T1, HUα2 P63A (Escherichia coli (MG1655-derived …, UniProt P0ACF0 1-90, P63A))
HUα2 wild-type [2] = target: T2, HUα2 wild-type (Escherichia coli (MG1655-derived …, UniProt P0ACF0 1-90))
HUα2 P63A [3] = target: T1, HUα2 P63A; remark: listed apart in the source
HUα2 wild-type [4] = target: T2, HUα2 wild-type; remark: listed apart in the source

Binder | binding result (HUα2 P63A [1]) | Kd (HUα2 wild-type [2]) [nM] | Kd (HUα2 P63A [3]) [nM] | Kd (HUα2 wild-type [4]) [nM]
linear DNA of random sequence (40 bp) (dsDNA) DNA 1: CCGACTAAGTACATGTGAGAATTTTGCTGCCTTCGAACCT DNA 2: AGGTTCGAAGGCAGCAAAATTCTCACATGTACTTAGTCGG | binds | 51 ± 4 |  | 
cruciform DNA (structured_DNA) DNA 1: CCTAGCAAGGGGCTGCTACCTTTGGTAGCAGCCTGAGCGGTGG DNA 2: CCACCGCTCAACTCAACTGCTTTGCAGTTGAGTCCTTGCTAGG |  |  | 352 | 178 ± 22
